The source of these data is paper PMC6018217, “3-Hydroxyphthalic Anhydride- Modified Rabbit Anti-PAP IgG as a Potential Bifunctional HIV-1 Entry Inhibitor” (Frontiers in Microbiology, 2018).

This data set deals with the molecule itself. Put plainly: amyloid fibril formation (ThT fluorescence, Congo red, TEM, CD); PAP248-286 alone at 3 mg/ml in PBS, agitated at 1,400 rpm, 37°C, 0-48 h; fibrils read by ThT fluorescence, Congo red staining, negative-stain TEM and CD.

B1: Peptide PAP248-286 (amino acid residues 248-286 of prostatic acidic phosphatase) (peptide, UniProt P15309 248-286, looked up)
peptide: GIHKQKEKSRLQGGVLVNEILNHMKRATQIPSYKKLIMY
notes: Forms SEVI amyloid fibrils when agitated at 3 mg/ml in PBS, 37°C; also called SEVI; SEVI fibrils; source: synthetic peptide (Fmoc solid phase, GL Biochem, HPLC purified)
Consider B1, for which the binding result is reported as “binds”.
